In one assay the target is CD3ε (UniProt P07766 23-207, SPR construct not described; extracellular domain taken by convention from the UniProt topology. In cell assays CD3ε is full mature chain in the TCR/CD3 complex). Put plainly: SPR; Listed KD-values were obtained by surface plasmon resonance; format, CD3ε construct and conditions not told.
For assay [1], the target named is HLA-A*0201/NY-ESO1(157-165)(9V) complex, refolded and biotinylated (human, p9C to valine (9V) (stands in the printed letters), biotin on the Avi tag). Put plainly: SPR; ProteOn; the methods tell an inverse set-up (MRGS-6His tagged DARPin captured by an immobilised RGS-His antibody on a GLC chip) and also HLA-A*0201/peptide targets on a neutravidin chip at different dilutions; HEPES buffer. As to conditions: both partners purified.

Chain of CD3ε (P07766 23-207): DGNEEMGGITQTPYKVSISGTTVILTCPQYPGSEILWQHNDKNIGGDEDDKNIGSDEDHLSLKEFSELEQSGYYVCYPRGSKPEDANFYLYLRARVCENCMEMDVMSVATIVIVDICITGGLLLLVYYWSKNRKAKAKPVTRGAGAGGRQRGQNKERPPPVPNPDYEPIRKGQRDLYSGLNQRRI

B1: CD3ε-specific DARPin version 1 (designed binder)
chain: DLGQKLLEAAWAGQDDEVRELLKAGADVNAKNSRGWTPLHTAAQTGHLEIFEVLLKAGADVNAKDDKGVTPLHLAAALGHLEIVEVLLKAGADVNAQDSWGTTPADLAAKYGHEDIAEVLQKAA
notes: four repeats (N-cap/ IR1/ IR2/ C-cap) joined in the printed order; also called CD3-v1; variant-1 (v1)
The Kd is the free concentration of one partner at which half of the binding sites on the other are occupied at equilibrium, for simple one-to-one binding. Molecule B1 displayed a Kd in the assay with CD3ε of 35 ± 21 nM.

B2: CD3ε-specific DARPin version 2 (designed binder)
chain: DLGQKLLEAAWAGQDDEVRELLKAGADVNAKNSRGWTPLHTAAQTGHLEIFEVLLKAGADVNAKNDKRVTPLHLAAALGHLEIVEVLLKAGADVNARDSWGTTPADLAAKYGHQDIAEVLQKAA
notes: four repeats (N-cap/ IR1/ IR2/ C-cap) joined in the printed order; also called CD3-v2; CD3v2
B2 had a dissociation constant (Kd) with CD3ε of 14 ± 3 nM.

B3: CD3ε-specific DARPin version 3 (designed binder)
chain: DLGQKLLEAAWAGQLDEVRILLKAGADVNAKNSRGWTPLHTAAQTGHLEIFEVLLKAGADVNAKTNKRVTPLHLAAALGHLEIVEVLLKAGADVNARDTWGTTPADLAAKYGHRDIAEVLQKAA
notes: four repeats (N-cap/ IR1/ IR2/ C-cap) joined in the printed order; also called CD3-v3; CD3v3
As for B3, the Kd with CD3ε was 6 nM.

B4: NY_1xCD3 (bispecific DARPin T cell engager: HLA-A*0201/NY-ESO1(157-165)-specific DARPin NY_1 linked to a CD3ε-specific DARPin) (designed binder)
chain: DLGKKLLQAARAGQLDEVRELLKAGADVNAKDLIGVTPLHLAAFSGHLEIVEVLLKASADVNAKDVSGRTPLHVAAKHGHLEIVEVLLKAGADVNAKDLIGFTPLHLAAQFGHLEIVEVLLKAGADVNAQDKSGKTPADLAARAGHQDIAEVLQKAAGSPTPTPTTPTPTPTTPTPTPTGSDLGQKLLEAAWAGQDDEVRELLKAGADVNAKNSRGWTPLHTAAQTGHLEIFEVLLKAGADVNAKNDKRVTPLHLAAALGHLEIVEVLLKAGADVNARDSWGTTPADLAAKYGHQDIAEVLQKAA
The koff is the rate constant with which the complex falls apart. A word on the kon: it is a measure of how fast the partners come together. Read a high kon as fast association. In assay [1], B4 displayed a Kd of 1.23 nM, an off-rate (koff) of 0.00113 s⁻¹ and a kon of 925000 M⁻¹ s⁻¹.

The record behind these values is paper PMC12664392 (iScience, 2025).
